In the supplement of paper PMC10567573:

B1: OAS1 (parent)
chain: TPAKSLDKFIEDYLLPDTCFRMQI

Variants of: B1
Assay: protein stability index of a GFP-peptide fusion (GPS, HEK-293T) (PSI 1-6); higher = more stable
Conditions: c terminus: a fixed tail appended
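Also: lentivirally expressed fusions sorted by FACS into six bins by GFP to DsRed ratio, PSI derived from sequencing read proportions per bin multiplied by bin number.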

| Variant | protein stability index |
| --- | --- |
| TPAKSLMKFIEDYLLPDTCFRMQI | 2.87 |
| LPAKSLDKFIEDYLLPDTCFRMQI | 3.21 |
| GPAKSLDKFIEDYLLPDTCFRMQI | 3.6 |
| APAKSLDKFIEDYLLPDTCFRMQI | 2.48 |
| CPAKSLDKFIEDYLLPDTCFRMQI | 2.39 |
| KPAKSLDKFIEDYLLPDTCFRMQI | 2.84 |
| EPAKSLDKFIEDYLLPDTCFRMQI | 1.7 |
| WPAKSLDKFIEDYLLPDTCFRMQI | 2.39 |
| DPAKSLDKFIEDYLLPDTCFRMQI | 1.82 |
| MPAKSLDKFIEDYLLPDTCFRMQI | 1.9 |
| SPAKSLDKFIEDYLLPDTCFRMQI | 2.13 |
| HPAKSLDKFIEDYLLPDTCFRMQI | 3.45 |
| YPAKSLDKFIEDYLLPDTCFRMQI | 2.84 |
| NPAKSLDKFIEDYLLPDTCFRMQI | 3.42 |
| RPAKSLDKFIEDYLLPDTCFRMQI | 4.07 |
| VPAKSLDKFIEDYLLPDTCFRMQI | 1.06 |
| PPAKSLDKFIEDYLLPDTCFRMQI | 2.51 |
| QPAKSLDKFIEDYLLPDTCFRMQI | 2.42 |
| IPAKSLDKFIEDYLLPDTCFRMQI | 2.59 |
| TTAKSLDKFIEDYLLPDTCFRMQI | 2.82 |
| TVAKSLDKFIEDYLLPDTCFRMQI | 1.74 |
| TQAKSLDKFIEDYLLPDTCFRMQI | 2.97 |
| TMAKSLDKFIEDYLLPDTCFRMQI | 3.28 |
| TNAKSLDKFIEDYLLPDTCFRMQI | 3.68 |

| Variant | protein stability index |
| --- | --- |
| TCAKSLDKFIEDYLLPDTCFRMQI | 3.55 |
| TRAKSLDKFIEDYLLPDTCFRMQI | 2.81 |
| TSAKSLDKFIEDYLLPDTCFRMQI | 1.69 |
| TWAKSLDKFIEDYLLPDTCFRMQI | 3.86 |
| THAKSLDKFIEDYLLPDTCFRMQI | 3.76 |
| TLAKSLDKFIEDYLLPDTCFRMQI | 2.82 |
| TIAKSLDKFIEDYLLPDTCFRMQI | 2.16 |
| TDAKSLDKFIEDYLLPDTCFRMQI | 1.92 |
| TFAKSLDKFIEDYLLPDTCFRMQI | 3.08 |
| TGAKSLDKFIEDYLLPDTCFRMQI | 3.49 |
| TPAKSLDCFIEDYLLPDTCFRMQI | 2.99 |
| TPAKSLDNFIEDYLLPDTCFRMQI | 2.09 |
| TPAKSLDDFIEDYLLPDTCFRMQI | 2.58 |
| TPAKSLDSFIEDYLLPDTCFRMQI | 2.43 |
| TPAKSLDHFIEDYLLPDTCFRMQI | 1.77 |
| TPAKSLDGFIEDYLLPDTCFRMQI | 1.62 |
| TPAKSLDMFIEDYLLPDTCFRMQI | 2.04 |
| TPAKSLDEFIEDYLLPDTCFRMQI | 3.06 |
| TPAKSLDPFIEDYLLPDTCFRMQI | 3.17 |
| TPAKSLDLFIEDYLLPDTCFRMQI | 3.06 |
| TPAKSLDRFIEDYLLPDTCFRMQI | 3.07 |
| TPAKSLDQFIEDYLLPDTCFRMQI | 1.68 |
| TPAKSLDAFIEDYLLPDTCFRMQI | 2.58 |
| TPAKSIDKFIEDYLLPDTCFRMQI | 3.63 |

| Variant | protein stability index |
| --- | --- |
| TPAKSYDKFIEDYLLPDTCFRMQI | 3 |
| TPAKSVDKFIEDYLLPDTCFRMQI | 1.97 |
| TPAKSFDKFIEDYLLPDTCFRMQI | 4.79 |
| TPAKSADKFIEDYLLPDTCFRMQI | 2.89 |
| TPAKSHDKFIEDYLLPDTCFRMQI | 2.66 |
| TPAKSMDKFIEDYLLPDTCFRMQI | 2.18 |
| TPAKSWDKFIEDYLLPDTCFRMQI | 2.19 |
| TPAKSCDKFIEDYLLPDTCFRMQI | 2.68 |
| TPAKSDDKFIEDYLLPDTCFRMQI | 1.38 |
| TPAKSRDKFIEDYLLPDTCFRMQI | 2.55 |
| TPAKSPDKFIEDYLLPDTCFRMQI | 2.43 |
| TPAKSKDKFIEDYLLPDTCFRMQI | 1.61 |
| TPAKSEDKFIEDYLLPDTCFRMQI | 1.49 |
| TPAKSNDKFIEDYLLPDTCFRMQI | 2.45 |
| TPAKSQDKFIEDYLLPDTCFRMQI | 2.47 |
| TPAKSTDKFIEDYLLPDTCFRMQI | 3.08 |
| TPAKSSDKFIEDYLLPDTCFRMQI | 1.94 |
| TPAKDLDKFIEDYLLPDTCFRMQI | 2.02 |
| TPAKRLDKFIEDYLLPDTCFRMQI | 3.08 |
| TPAKKLDKFIEDYLLPDTCFRMQI | 2.14 |
| TPAKALDKFIEDYLLPDTCFRMQI | 2.52 |
| TPAKILDKFIEDYLLPDTCFRMQI | 2.43 |
| TPAKLLDKFIEDYLLPDTCFRMQI | 3.15 |
| TPAKELDKFIEDYLLPDTCFRMQI | 1.74 |

| Variant | protein stability index |
| --- | --- |
| TPAKVLDKFIEDYLLPDTCFRMQI | 3.06 |
| TPAKTLDKFIEDYLLPDTCFRMQI | 2.86 |
| TPAKWLDKFIEDYLLPDTCFRMQI | 1.99 |
| TPAKHLDKFIEDYLLPDTCFRMQI | 1.69 |
| TPAKYLDKFIEDYLLPDTCFRMQI | 2.89 |
| TPAKNLDKFIEDYLLPDTCFRMQI | 2.78 |
| TPAKQLDKFIEDYLLPDTCFRMQI | 2.4 |
| TPAKCLDKFIEDYLLPDTCFRMQI | 2.19 |
| TPAKFLDKFIEDYLLPDTCFRMQI | 1.63 |
| TPAKMLDKFIEDYLLPDTCFRMQI | 2.42 |
| TPAMSLDKFIEDYLLPDTCFRMQI | 1.67 |
| TPATSLDKFIEDYLLPDTCFRMQI | 2.48 |
| TPAHSLDKFIEDYLLPDTCFRMQI | 2.59 |
| TPALSLDKFIEDYLLPDTCFRMQI | 2.23 |
| TPASSLDKFIEDYLLPDTCFRMQI | 2.24 |
| TPAWSLDKFIEDYLLPDTCFRMQI | 3.85 |
| TPACSLDKFIEDYLLPDTCFRMQI | 2.29 |
| TPAFSLDKFIEDYLLPDTCFRMQI | 2.9 |
| TPANSLDKFIEDYLLPDTCFRMQI | 2.52 |
| TPAISLDKFIEDYLLPDTCFRMQI | 1.9 |
| TPAPSLDKFIEDYLLPDTCFRMQI | 2.13 |
| TPADSLDKFIEDYLLPDTCFRMQI | 2.19 |
